According to patent US20250177447A1:

Biological target: G protein-coupled receptor class C group 5 member D (GPRC5D) on tumor cells (MM.1S, RPMI8226, NCI-H929) (human) (UniProt Q9NZD1)
Assay: cell-based or functional assay

Sequence of UniProt Q9NZD1 (Q9NZD1 whole entry): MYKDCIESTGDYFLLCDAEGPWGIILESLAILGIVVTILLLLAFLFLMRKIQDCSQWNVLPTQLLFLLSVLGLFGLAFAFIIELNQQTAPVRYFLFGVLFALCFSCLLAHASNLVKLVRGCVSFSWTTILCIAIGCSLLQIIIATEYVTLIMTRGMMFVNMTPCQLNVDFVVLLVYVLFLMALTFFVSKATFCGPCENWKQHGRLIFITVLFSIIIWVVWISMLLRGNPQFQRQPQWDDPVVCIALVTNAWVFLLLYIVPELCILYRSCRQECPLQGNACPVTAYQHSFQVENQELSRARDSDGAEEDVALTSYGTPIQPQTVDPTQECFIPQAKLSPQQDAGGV

B1: CAR2, GPRC5D chimeric antigen receptor (CAR 2 (VL-VH)), expressed on human T cells (protein, part only; not given: CAR backbone and scFv linker, not shown: small tags and cut ends)
chain, part: SSELTQDPAASVALGQTVKITCQGDSLRRYFASWYQQKPGQAPTLVTYGKNRRPSGVPDRLSGSSSGDTASLTITGAQAEDEGDYYCNSRDRSGTVVFGGGTKLTVLEVQLVESGGGVVQPGRSLRLSCAASGFTFSSYAMSWVRQAPGKGLEWVSAISGSGGSTYYAGSVKGRFTISRDNSKNTLYLQMNSLRAEDTAVYYCARDLYGYRYYYYGMDVWGQGTMVTVSS
% survival of MM.1S-ffluc cells, luciferase cytotoxicity assay, 24 h, E:T 1:1: < 5%
% survival of MM.1S-ffluc cells, luciferase cytotoxicity assay, 24 h, E:T 1:2: 15%
% survival of MM.1S-ffluc cells, luciferase cytotoxicity assay, 24 h, E:T 1:4: 35%
% survival of MM.1S-ffluc cells, luciferase cytotoxicity assay, 24 h, E:T 1:8: 85%
% survival of RPMI8226-ffluc cells, luciferase cytotoxicity assay, 24 h, E:T 1:1: 3%
% survival of RPMI8226-ffluc cells, luciferase cytotoxicity assay, 24 h, E:T 1:2: 10%
% survival of RPMI8226-ffluc cells, luciferase cytotoxicity assay, 24 h, E:T 1:4: 25%
% survival of RPMI8226-ffluc cells, luciferase cytotoxicity assay, 24 h, E:T 1:8: 50%

B2: CAR1, GPRC5D chimeric antigen receptor (CAR 1 (VL-VH)), expressed on human T cells (protein, part only; not given: CAR backbone and scFv linker, not shown: small tags and cut ends)
chain, part: SSELTQDPAASVALGQTVRITCQGDSVRTYYAGWYQQKPGQAPVLVIYGKNHRPSGIPDRFSGSTSGNTASLTITGVQAEDEADYYCNSRDSSANPVFGGGTKVTVLQVQLVQSGAEVKKPGASVKVSCKASGYTFTSYYMHWVRQAPGQGLEWMGWINPNSGGTNYAQKFQGRVTITADKSTSTAYMELNSLRAEDTAVYYCVRSKGRAARNYYYMDVWGKGTTVTVSS
% survival of MM.1S-ffluc cells, luciferase cytotoxicity assay, 24 h, E:T 1:1: 20%
% survival of MM.1S-ffluc cells, luciferase cytotoxicity assay, 24 h, E:T 1:2: 60%
% survival of MM.1S-ffluc cells, luciferase cytotoxicity assay, 24 h, E:T 1:4: 88%
% survival of RPMI8226-ffluc cells, luciferase cytotoxicity assay, 24 h, E:T 1:1: 12%
% survival of RPMI8226-ffluc cells, luciferase cytotoxicity assay, 24 h, E:T 1:2: 40%
% survival of RPMI8226-ffluc cells, luciferase cytotoxicity assay, 24 h, E:T 1:4: 70%
% survival of RPMI8226-ffluc cells, luciferase cytotoxicity assay, 24 h, E:T 1:8: 90%
